The nature of the data set: label from the status in PepcDB records.
“KITRLTTYRLPPRWMFLKVETDEGVTGWGEPVIEGRARTVEAAVHELSDYLIGQDPSRINDLWQTMYRAGFYRGGPILMSAIAGIDQALWDIKGKVLGVPVYELLGGLVRDKMRTYSWVGGDRPADVIAGMKALQAGGFDHFKLNGCEEMGIIDTSRAVDAAVARVAEIRSAFGNTVEFGLDFHGRVSAPMAKVLIKELEPYRPLFIEEPVLAEQAETYARLAAHTHLPIAAGERMFSRFDFKRVLEAGGVSILQPDLSHAGGITECVKIAAMAEAYDVALAPHCPLGPIALAACLHVDFVSWNATLQEQSMGIHYNKGAELLDYVRNKADFALEGGYIRPPRLPGLGVDIDEALVIERSKEAPDWRNPVWRHADGSVAEW”: the protein production result is “not failed”.

Turning to “KKISSTAVIELALDLATSLNTKDRFDRLLDTVRKTITCDAVALLSYHGDVLKPIALQGLSRDTLGRRFYVEEHPRFLALCQSKSPIRFAADSPLPDPYDGLLIDREGDLPVHSCMGLPLYYDDKLLGLLTIDSLTPHDFEDIDVRMLEVISAIAAATLNTAFLLDQLESRADHSQRVVAELTEEAWKRDGGE”, the protein production result is on record as “failed”.

On to “KKPKHHVLSHDIIPASKPIAEKLQIQPESPVVELKRILYNDDQPLTFEVTHYPLDLFPGIDTFIADGVSMHDILKQQYKVVPTHNTKLLNVVYAQQEESKYLDCDIGDALFEIDKTAFTSNDQPIYCSLFLMHT”, for which the protein production entry is given as “not failed”.

As for “KKSKYMTPMQQKLNEVYEAVKNYTDKRGRRLSAIFLRLPSRSELPDYYLTIKKPMDMEKIRSHMMANKYQDIDSMVEDFVMMFNNACTYNEPESLIYKDALVLHKVLLETRRD”, the protein production result is “not failed”.

With “KLLAITSCPNGIAHTYMAAENLQKAADRLGVSIKVETQGGIGVENKLTEEEIREADAIIIAADRSVNKDRFIGKKLLSVGVQDGIRKPEELIQKALNGDIPVY”, the protein production result was “not failed”.

For the sequence “KQLGPHTYLVSGRMEIDDVNERFGLSLPESDDYLTVAGFILNSHQNIPQANEVVEIAPYTFTILRSSSTKIELVKMSIDD”, the protein production entry is given as “not failed”.

Consider “KRFEFVGWGSRQLIEFLHSLGKDTSEMISRYDVSDTIAKYISKEGLLDPSNKKKVVCDKRLVLLFGTRTIFRMKVYDLLEKHYKENQD”, for which the protein production entry is reported as “not failed”.

Turning to “KRPGNILIGTLPVGLDFPTRIVAEIVDAPSLTIEEIMRKAKYYLREGADIIDIGMESGKTNVEFLESVLPEIKEKINAPLSLDTLNPKEIEAGEKEVDLILSVDFGTVEEILPSKPVVLIPTNMKEGKFIEDPIGRAKALEKLKEKALNLGYKGLILDPILEHYPNFSRSLVAFYLYRMRNPQDILLAGVGNITEMMDADSVGLNALLASIAGELKISLLLTTEVSPKATGSVRELKRGIDMVLL”, the protein production entry is “failed”.

Regarding “KRSHLENALNYALENSETAYNEMFLECDKQFILESWLNDFDLTKDYNETMHLVFSIKDKPDEETMQGLLHSTWESLKIRLPEYKFALVPHAHQDHAHIHCFINKTNQLTRRRLRFKGHEDCKEFFNELRSEFAYRLNDHLLSEEYLYVNEPKLKELDNIKQQLQDLEKEEKALEQIKSPQDEWDLNKALQSEYLQELKYKNKAKALDIQNNHSTPLKQKISEFKIALFNHKDTSDDEKEQLDIDRIDKRKPVSEHLKNTNKHELYELLGFYQKELDKKQNHSAFKNFAILNGLDRDFERETNGYSVLKKKEMLLNKLEHLDKRLLDKNSHLLLAQ”, the protein production entry is listed as “failed”.

With “KRVFGFVSAKGGDGGSCIAANFAFALSQEPDIHVLAVDISLPFGDLDMYLSGNTHSQDLADISNASDRLDKSLLDTMVQHISPSLDLIPSPATFEKIVNIEPERVSDLIHIAASFYDYIIVDFGASIDHVGVWVLEHLDELCIVTTPSLQSLRRAGQLLKLCKEFEKPISRIEIILNRADTNSRITSDEIEKVIGRPISKRIPQDEDAMQESLLSGQSVLKVAPKSQLSKTIVDWALHLNGV”, the protein production result is “not failed”.

As for “KSAVTAQSILEKADEIRFPQDSFQVNVAIRTAAPDHAEDLYRYQVLSKGNENSIVMITEPASERGQAILMKGRDLWVFMPSVSQPIRLSLSQRLTGQVANGDIARANFTGDYHPQLLRNESIDDEDYYVLELTGIDRSVTYQKVLLWVNQSNFRPYKAEFYSVSGRLLKTSRYENFDNILGEMRPTRIIMEDALKSGEVSVLDYSDMKLRDLPDKIFTKDYLKRLE”, the protein production result is listed as “not failed”.

With “KVDPSDFSDVLIAHTVMKPFPDAPTALYQIKAKGYETVLMTNHSRDLIQSNVINLDHEFDMIITAEDVQTYKPNQKFFDYVNDQLGNDVEKHVHVAVDEVKDLKPAQDAGWNVIKIDRKSEDAS”, the protein production entry is “failed”.

Consider “KWIFREPSRTDGDDVYALITECPPLDINSSYCNFLQATHFSKTCVLAEKDGDLAGFISGYQEPDEPNTLFIWQVAVSPRYRGKGLAFSMLTTLLERKNLLHIEFIETTITKANNASWSLFKKIDAQYGNQGQVTTFLDKESHFKGKHDTEYLYRIPL”, for which the protein production result is given as “failed”.

As for “KWLDYDFTSLRKEILDKAFQKSLTQINWIMGGYYLVMESLSFFEYEQSIQSKTVRHLILVFYLLFFMGVIKKLDTYLKEKLYERLEQEQALRYRDMERYSRHIEELYKEVRSFRHDYTNLLTSLRLGIEEEDMEQIKEVYGSVLKDSSQKLQNNKYDLGRLVNIRDKALKSLLAGKFLKARDKNIVFNVEVPEEIQVEGMSLLDFLTIVSILCDNAIEASVEASQPHVSIAFLKNGAQETFIIENSIKEEGIDISEIFSFGASSKGEERGVGLYTVMKIVESHPNTSLNTTCQNQVFRQVLTVIHTE”, the protein production entry is listed as “failed”.

Take “LADVKHAQSQALFKEHMLETIFNAIPDLFFLMEVDGMIVDYHTGDQKNLYVAPHQFIGKRMTDLLPQEVVSKFQTHVDKILQQEGMITFEYELTMPHGLVHFEARMSYLPEYNQIVLIIRDIS”: the protein production entry is on record as “failed”.

Take “LAEKAGIGVWSYEPETQRIDWAPDALALMGVSPEDIATPELFLARLPENHRAEVQAAFVHAARTGEGGTLEYRLRANDGRWFTLRATYRTEARPGSGFALKGVSQNITDVARS”: the protein production result is listed as “failed”.

Take “LDALRRYHRQTLQELPMGVCSLAKDQEILMWNKAMEELTGIPAQHVVGSRLSTITNPWKDLLQGFINLPDEHLHKQHLALDGQTRWLNLHKAAIDEPLAPGNSGLVLLVEDLTETQTLEDKLVHSERLASIGRLAAGVAHEIGNPITGI”: the protein production entry is “failed”.

Consider “LDHITVVTADGKVALNQIGQISMKSPQVILVNMASFPECTAAAIKAIRESGMNLNPEVEGTLIRVPIPKVT”, for which the protein production entry is on record as “not failed”.

For “LDLQIIMDDLLNLLLKEFKLDLAVIRLVDEKGVLRVRSYSGKGIAGIAGKDWEPEIETYIGEAFLSNRLQFVNDTQYMTKPLTRELMQKEGIKSFAHIPISRKGEPPFGILSVFSRTIVGLFNEPFLNLLESLAGQLAQAVKIVTEMEAKEREREEKERILLENARVVKEMEIAKQIQLSLLPSAPPTLPRH”, the protein production result is on record as “failed”.

Consider “LDPGLQPGQFSADEAGAQLFAQSYQSSAEQVLFQSVAASWAHDTNITAENARRQEEAALLSQEFAEAWGQKAKELYEPIWQQFTDPQLRRIIGAVRTLGSANLPLAKRQQYNALLSQMSRIYSTAKVCLPQKTATCWSLDPDLTNILASSRSYAMLLFAWEGWHNAAGIPLKPLYEDFTALSNEAYKQDGFTDTGAYWRSWYNSPTFEDDLEHLYQQLEPLYLNLHAFVRRALHRRYGDRYINLRGPIPAHLLGDMWAQSWENIYDMVVPFPDKPNLDVTSTMLQQGWQATHMFRVAEEFFTSLELSPMPPEFWEGSMLEKPADGREVVCHASAWDFYNRKDFRIKQCTRVTMDQLSTVHHEMGHIQYYLQYKDLPVSLRRGANPGFHEAIGDVLALSVSTPEHLHKIGLLDRVTNDTESDINYLLKMALEKIAFLPFGYLVDQWRWGVFSGRTPPSRYNFDWWYLRTKYQGICPPVTRNETHFDAGAKFHVPNVTPYIRYFVSFVLQFQFHEALCKEAGYEGPLHQCDIYRSTKAGAKLRKVLRAGSSRPWQEVLKDMVGLDALDAQPLLKYFQLVTQWLQEQNQQNGEVLGWPEYQWHPPLPDNYPEGIDLVTDEAEASKFVEEYDL”, for which the protein production entry is “not failed”.

Consider “LDVGCNQGGFLRKLYDTTPFKEGVGIDLARLSLEKAETLKGERPLTYYLTDKPQETNRTFDTAVSTSVLYLIEDIPQHAQDLKEVLKPGGVYYASFADLTNNPSRQFMDDTINQYGATPSQNHSLKHIVDSFVDAGFEVAVMKEPVPDVIDLTHYSDFYLSPNDYLQTLYEESFLIKASVKEGIGK”, for which the protein production entry is given as “failed”.

(Values after a protein production outcome set (Wang et al. 2014).)
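Note: failed if final PepcDB status was selected cloned or expressed and not failed if soluble or beyond.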
